From US20220107306A1

Legend:
[1] = system: rabbit IgG (anti-PD-L1 rabbit monoclonal antibody clone SP142) (Oryctolagus cuniculus); settings: 5' SH (reduced disulfide), coupled to maleimide-PEG nanoparticle; secondary staining of SP142 rabbit mAb on NCI-H446 section; 0.05 nM aptamer-nanoparticle, PBS 1% BSA, RT 3 h
[2] = biological target: Recombinant human HER2 protein (E27-11G-10/Signal Chem) (human) (UniProt P04626); assay: sandwich ELISA: HER2 captured by antibody 6C2, detected with 0.67 nM antibody-coated PID-T particles, before lyophilizing
[3] = biological target: Recombinant human HER2 protein (E27-11G-10/Signal Chem) (human) (UniProt P04626); assay: sandwich ELISA: HER2 captured by antibody 6C2, detected with 0.67 nM antibody-coated PID-T particles, after lyophilizing
[4] = biological target: Recombinant human PDL1 protein (BioVision/7429-50) (human) (UniProt Q9NZQ7); assay: sandwich ELISA: PDL1 captured by antibody 28-8, detected with antibody-coated PID particles, after lyophilizing
Sequence of UniProt Q9NZQ7 (Q9NZQ7 19-238 limits assumed): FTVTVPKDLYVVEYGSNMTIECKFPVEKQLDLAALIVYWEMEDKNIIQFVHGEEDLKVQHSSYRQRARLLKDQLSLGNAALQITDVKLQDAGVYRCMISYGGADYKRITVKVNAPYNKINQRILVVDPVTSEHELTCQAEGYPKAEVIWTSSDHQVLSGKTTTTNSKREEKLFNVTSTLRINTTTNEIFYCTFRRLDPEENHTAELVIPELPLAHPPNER

[5] = biological target: Recombinant human PDL1 protein (BioVision/7429-50) (human) (UniProt Q9NZQ7); assay: sandwich ELISA: PDL1 captured by antibody 28-8, detected with antibody-coated PID particles, before lyophilizing

GGGAGAAUUCCGACCAGAAGUUCGAUACGCCGUGGGGUGACGUUGGCUACCCUUUCCUCUCUCCUCCUUCUUCU [rabbit IgG RNA aptamer (74 mer)]
binding (bright spots per cell) [1]: 605

anti-HER2-Fab antibody prepared from the anti-HER2-whole antibody (Abcam EP1045Y), bound to the surface of PID-T
Fluorescence intensity (PFU), before lyophilizing [2]: 41000 PFU | Fluorescence intensity (PFU), after lyophilizing [3]: 18000 PFU

anti-HER2-whole antibody (Abcam, product code EP1045Y), bound to the surface of PID-T
Fluorescence intensity (PFU), before lyophilizing [2]: 33000 PFU | Fluorescence intensity (PFU), after lyophilizing [3]: 15000 PFU

anti-PDL1-recombinant antibody (clone E1L3N/Cell Signaling Technology), bound to the surface of PID-P
Fluorescence intensity (PFU), after lyophilizing [4]: 5500 PFU | Fluorescence intensity (PFU), before lyophilizing [5]: 17000 PFU

B1: anti-HER2-VHH antibody (SH group-containing VHH antibody that recognizes HER2 antigen), bound to the surface of PID-T (VHH)
VHH: EVQLVESGGGLVQAGGSLRLSCAASGITFSINTMGWYRQAPGKQRELVALISSIGDTYYADSVKGRFTISRDNAKNTVYLQMNSLKPEDTAVYYCKRFRTAQGTDYWGQGTQVTVSS
modifications: C-terminal cysteine of the linker reduced with DTT to a free SH group and coupled to the maleimide group of TAMRA-encapsulating silica nanoparticles (PID-T)
Fluorescence intensity (PFU), before lyophilizing [2]: 51000 PFU | Fluorescence intensity (PFU), after lyophilizing [3]: 49000 PFU
